From article PMC10261145, “Ceramide sensing by human SPT-ORMDL complex for establishing sphingolipid homeostasis” (Nature Communications, 2023)

Legend:
[1] = substrate: N[C@@H](CO)C(=O)O; assay: purified protein; conditions: 100 μM palmitoyl-CoA, 25 μM PLP, pH 7.5, 37 °C
[2] = substrate: CCCCCCCCCCCCCCCC(=O)SCCNC(=O)CCNC(=O)[C@H](O)C(C)(C)COP(=O)(O)OP(=O)(O)OC[C@H]1O[C@@H](n2cnc3c(N)ncnc32)[C@H](O)[C@@H]1OP(=O)(O)O; assay: DTNB CoA-release assay; allosteric sigmoidal fit; assay type: biochemical, Homo sapiens; conditions: 10 mM L-serine, 25 μM PLP, pH 7.5, 37 °C
Description: DTNB CoA-release assay; allosteric sigmoidal fit on SPT-ORMDL3 complex | increased Khalf for palmitoyl-CoA in the ORMDL3-containing complex (Fig. 1e)

[3] = substrate: CCCCCCCCCCCCCCCC(=O)SCCNC(=O)CCNC(=O)[C@H](O)C(C)(C)COP(=O)(O)OP(=O)(O)OC[C@H]1O[C@@H](n2cnc3c(N)ncnc32)[C@H](O)[C@@H]1OP(=O)(O)O; assay: DTNB CoA-release assay; allosteric sigmoidal fit; assay type: biochemical, Homo sapiens; conditions: 10 mM L-serine, 25 μM PLP, pH 7.5, 37 °C; remark: listed apart in the source
[4] = substrate: CCCCCCCCCCCCCCCC(=O)SCCNC(=O)CCNC(=O)[C@H](O)C(C)(C)COP(=O)(O)OP(=O)(O)OC[C@H]1O[C@@H](n2cnc3c(N)ncnc32)[C@H](O)[C@@H]1OP(=O)(O)O; assay: DTNB CoA-release assay; allosteric sigmoidal fit; assay type: biochemical, Homo sapiens; conditions: 10 mM L-serine, 25 μM PLP, pH 7.5, 37 °C; remark: listed apart in the source
Description: DTNB CoA-release assay; allosteric sigmoidal fit on SPT-ORMDL3 complex | Khalf value of this variant toward palmitoyl-CoA was nearly two times as high

[5] = substrate: CCCCCCCCCCCCCCCC(=O)SCCNC(=O)CCNC(=O)[C@H](O)C(C)(C)COP(=O)(O)OP(=O)(O)OC[C@H]1O[C@@H](n2cnc3c(N)ncnc32)[C@H](O)[C@@H]1OP(=O)(O)O; assay: DTNB CoA-release assay; allosteric sigmoidal fit; assay type: biochemical, Homo sapiens; conditions: 10 mM L-serine, 25 μM PLP, pH 7.5, 37 °C; remark: listed apart in the source
Description: DTNB CoA-release assay; allosteric sigmoidal fit on SPT complex | SPT activity versus palmitoyl-CoA concentration for SPT and SPT-ORMDL3 complex

B1: SPT-ORMDL3 complex (Homo sapiens) (protein)
chain 1: MNVGTAHSEVNPNTRVMNSRGIWLSYVLAIGLLHIVLLSIPFVSVPVVWTLTNLIHNMGMYIFLHTVKGTPFETPDQGKARLLTHWEQMDYGVQFTASRKFLTITPIVLYFLTSFYTKYDQIHFVLNTVSLMSVLIPKLPQLHGVRIFGINKY
chain 2: MRPEPGGCCCRRTVRANGCVANGEVRNGYVRSSAAAAAAAAAGQIHHVTQNGGLYKRPFNEAFEETPMLVAVLTYVGYGVLTLFGYLRDFLRYWRIEKCHHATEREEQKDFVSLYQDFENFYTRNLYMRIRDNWNRPICSVPGARVDIMERQSHDYNWSFKYTGNIIKGVINMGSYNYLGFARNTGSCQEAAAKVLEEYGAGVCSTRQEIGNLDKHEELEELVARFLGVEAAMAYGMGFATNSMNIPALVGKGCLILSDELNHASLVLGARLSGATIRIFKHNNMQSLEKLLKDAIVYGQPRTRRPWKKILILVEGIYSMEGSIVRLPEVIALKKKYKAYLYLDEAHSIGALGPTGRGVVEYFGLDPEDVDVMMGTFTKSFGASGGYIGGKKELIDYLRTHSHSAVYATSLSPPVVEQIITSMKCIMGQDGTSLGKECVQQLAENTRYFRRRLKEMGFIIYGNEDSPVVPLMLYMPAKIGAFGREMLKRNIGVVVVGFPATPIIESRARFCLSAAHTKEILDTALKEIDEVGDLLQLKYSRHRLVPLLDRPFDETTYEETED
chain 3: MATATEQWVLVEMVQALYEAPAYHLILEGILILWIIRLLFSKTYKLQERSDLTVKEKEELIEEWQPEPLVPPVPKDHPALNYNIVSGPPSHKTVVNGKECINFASFNFLGLLDNPRVKAAALASLKKYGVGTCGPRGFYGTFDVHLDLEDRLAKFMKTEEAIIYSYGFATIASAIPAYSKRGDIVFVDRAACFAIQKGLQASRSDIKLFKHNDMADLERLLKEQEIEDQKNPRKARVTRRFIVVEGLYMNTGTICPLPELVKLKYKYKARIFLEESLSFGVLGEHGRGVTEHYGINIDDIDLISANMENALASIGGFCCGRSFVIDHQRLSGQGYCFSASLPPLLAAAAIEALNIMEENPGIFAVLKEKCGQIHKALQGISGLKVVGESLSPAFHLQLEESTGSREQDVRLLQEIVDQCMNRSIALTQARYLEKEEKCLPPPSIRVVVTVEQTEEELERAASTIKEVAQAVLL
notes: full-length subunits (ORMDL3-FL) co-expressed in HEK293F; N-terminal Flag tag on a subunit; purified in GDN; dimer of heterotetrameric protomers; with Serine palmitoyltransferase small subunit A
B1 gave a Km [1] of 1140 ± 70 µM and a K0.5 [2] of 26.85 ± 2.18 µM.

B2: SPT-ORMDL3 (ORMDL3-ΔN17) (Homo sapiens) (protein)
chain 1: MATATEQWVLVEMVQALYEAPAYHLILEGILILWIIRLLFSKTYKLQERSDLTVKEKEELIEEWQPEPLVPPVPKDHPALNYNIVSGPPSHKTVVNGKECINFASFNFLGLLDNPRVKAAALASLKKYGVGTCGPRGFYGTFDVHLDLEDRLAKFMKTEEAIIYSYGFATIASAIPAYSKRGDIVFVDRAACFAIQKGLQASRSDIKLFKHNDMADLERLLKEQEIEDQKNPRKARVTRRFIVVEGLYMNTGTICPLPELVKLKYKYKARIFLEESLSFGVLGEHGRGVTEHYGINIDDIDLISANMENALASIGGFCCGRSFVIDHQRLSGQGYCFSASLPPLLAAAAIEALNIMEENPGIFAVLKEKCGQIHKALQGISGLKVVGESLSPAFHLQLEESTGSREQDVRLLQEIVDQCMNRSIALTQARYLEKEEKCLPPPSIRVVVTVEQTEEELERAASTIKEVAQAVLL
chain 2: MRPEPGGCCCRRTVRANGCVANGEVRNGYVRSSAAAAAAAAAGQIHHVTQNGGLYKRPFNEAFEETPMLVAVLTYVGYGVLTLFGYLRDFLRYWRIEKCHHATEREEQKDFVSLYQDFENFYTRNLYMRIRDNWNRPICSVPGARVDIMERQSHDYNWSFKYTGNIIKGVINMGSYNYLGFARNTGSCQEAAAKVLEEYGAGVCSTRQEIGNLDKHEELEELVARFLGVEAAMAYGMGFATNSMNIPALVGKGCLILSDELNHASLVLGARLSGATIRIFKHNNMQSLEKLLKDAIVYGQPRTRRPWKKILILVEGIYSMEGSIVRLPEVIALKKKYKAYLYLDEAHSIGALGPTGRGVVEYFGLDPEDVDVMMGTFTKSFGASGGYIGGKKELIDYLRTHSHSAVYATSLSPPVVEQIITSMKCIMGQDGTSLGKECVQQLAENTRYFRRRLKEMGFIIYGNEDSPVVPLMLYMPAKIGAFGREMLKRNIGVVVVGFPATPIIESRARFCLSAAHTKEILDTALKEIDEVGDLLQLKYSRHRLVPLLDRPFDETTYEETED
notes: ORMDL3 lacking the N-terminal 16 residues (deletion 2-17, by analogy with the printed ΔN8 = 2-8); HEK293F; purified in GDN; with Serine palmitoyltransferase small subunit A; ORM1-like protein 3
B2 was tested, and the K0.5 [3] was 2.51 ± 0.33 µM.

B3: SPT-ORMDL3 complex (Homo sapiens; Q8N138:N13A) (protein)
chain 1: MNVGTAHSEVNPATRVMNSRGIWLSYVLAIGLLHIVLLSIPFVSVPVVWTLTNLIHNMGMYIFLHTVKGTPFETPDQGKARLLTHWEQMDYGVQFTASRKFLTITPIVLYFLTSFYTKYDQIHFVLNTVSLMSVLIPKLPQLHGVRIFGINKY
chain 2: MRPEPGGCCCRRTVRANGCVANGEVRNGYVRSSAAAAAAAAAGQIHHVTQNGGLYKRPFNEAFEETPMLVAVLTYVGYGVLTLFGYLRDFLRYWRIEKCHHATEREEQKDFVSLYQDFENFYTRNLYMRIRDNWNRPICSVPGARVDIMERQSHDYNWSFKYTGNIIKGVINMGSYNYLGFARNTGSCQEAAAKVLEEYGAGVCSTRQEIGNLDKHEELEELVARFLGVEAAMAYGMGFATNSMNIPALVGKGCLILSDELNHASLVLGARLSGATIRIFKHNNMQSLEKLLKDAIVYGQPRTRRPWKKILILVEGIYSMEGSIVRLPEVIALKKKYKAYLYLDEAHSIGALGPTGRGVVEYFGLDPEDVDVMMGTFTKSFGASGGYIGGKKELIDYLRTHSHSAVYATSLSPPVVEQIITSMKCIMGQDGTSLGKECVQQLAENTRYFRRRLKEMGFIIYGNEDSPVVPLMLYMPAKIGAFGREMLKRNIGVVVVGFPATPIIESRARFCLSAAHTKEILDTALKEIDEVGDLLQLKYSRHRLVPLLDRPFDETTYEETED
chain 3: MATATEQWVLVEMVQALYEAPAYHLILEGILILWIIRLLFSKTYKLQERSDLTVKEKEELIEEWQPEPLVPPVPKDHPALNYNIVSGPPSHKTVVNGKECINFASFNFLGLLDNPRVKAAALASLKKYGVGTCGPRGFYGTFDVHLDLEDRLAKFMKTEEAIIYSYGFATIASAIPAYSKRGDIVFVDRAACFAIQKGLQASRSDIKLFKHNDMADLERLLKEQEIEDQKNPRKARVTRRFIVVEGLYMNTGTICPLPELVKLKYKYKARIFLEESLSFGVLGEHGRGVTEHYGINIDDIDLISANMENALASIGGFCCGRSFVIDHQRLSGQGYCFSASLPPLLAAAAIEALNIMEENPGIFAVLKEKCGQIHKALQGISGLKVVGESLSPAFHLQLEESTGSREQDVRLLQEIVDQCMNRSIALTQARYLEKEEKCLPPPSIRVVVTVEQTEEELERAASTIKEVAQAVLL
notes: as for B1
In the case of B3, the K0.5 [4] is reported as 8.05 ± 1.20 µM.

B4: SPT complex (Homo sapiens) (protein)
chain 1: MATATEQWVLVEMVQALYEAPAYHLILEGILILWIIRLLFSKTYKLQERSDLTVKEKEELIEEWQPEPLVPPVPKDHPALNYNIVSGPPSHKTVVNGKECINFASFNFLGLLDNPRVKAAALASLKKYGVGTCGPRGFYGTFDVHLDLEDRLAKFMKTEEAIIYSYGFATIASAIPAYSKRGDIVFVDRAACFAIQKGLQASRSDIKLFKHNDMADLERLLKEQEIEDQKNPRKARVTRRFIVVEGLYMNTGTICPLPELVKLKYKYKARIFLEESLSFGVLGEHGRGVTEHYGINIDDIDLISANMENALASIGGFCCGRSFVIDHQRLSGQGYCFSASLPPLLAAAAIEALNIMEENPGIFAVLKEKCGQIHKALQGISGLKVVGESLSPAFHLQLEESTGSREQDVRLLQEIVDQCMNRSIALTQARYLEKEEKCLPPPSIRVVVTVEQTEEELERAASTIKEVAQAVLL
chain 2: MRPEPGGCCCRRTVRANGCVANGEVRNGYVRSSAAAAAAAAAGQIHHVTQNGGLYKRPFNEAFEETPMLVAVLTYVGYGVLTLFGYLRDFLRYWRIEKCHHATEREEQKDFVSLYQDFENFYTRNLYMRIRDNWNRPICSVPGARVDIMERQSHDYNWSFKYTGNIIKGVINMGSYNYLGFARNTGSCQEAAAKVLEEYGAGVCSTRQEIGNLDKHEELEELVARFLGVEAAMAYGMGFATNSMNIPALVGKGCLILSDELNHASLVLGARLSGATIRIFKHNNMQSLEKLLKDAIVYGQPRTRRPWKKILILVEGIYSMEGSIVRLPEVIALKKKYKAYLYLDEAHSIGALGPTGRGVVEYFGLDPEDVDVMMGTFTKSFGASGGYIGGKKELIDYLRTHSHSAVYATSLSPPVVEQIITSMKCIMGQDGTSLGKECVQQLAENTRYFRRRLKEMGFIIYGNEDSPVVPLMLYMPAKIGAFGREMLKRNIGVVVVGFPATPIIESRARFCLSAAHTKEILDTALKEIDEVGDLLQLKYSRHRLVPLLDRPFDETTYEETED
notes: core enzyme without ORMDL; full-length subunits co-expressed in HEK293F; N-terminal Flag tag on a subunit; purified in GDN; with Serine palmitoyltransferase small subunit A
For B4, the Km [1] was 1580 ± 130 µM and the K0.5 [5] was 4.47 ± 0.31 µM.
